Results taken from IntAct's records for PubMed 31515488.

B1: Protein FAM9B (Homo sapiens), Q8IZU0 (parent)
chain: MAAWGKKHAGKDPVRDECEERNRFTETREEDVTDEHGEREPFAETDEHTGANTKKPEDTAEDLTAKRKRMKMDKTCSKTKNKSKHALRKKQLKRQKRDYIHSLKLLNVLEEYITDEQKEEEEEEGEEEELIRIFQEQQKKWQQYRSVRRERLKEMKLLRDQFVKALEDFEDLCDRVFSDEDSELDN
partner: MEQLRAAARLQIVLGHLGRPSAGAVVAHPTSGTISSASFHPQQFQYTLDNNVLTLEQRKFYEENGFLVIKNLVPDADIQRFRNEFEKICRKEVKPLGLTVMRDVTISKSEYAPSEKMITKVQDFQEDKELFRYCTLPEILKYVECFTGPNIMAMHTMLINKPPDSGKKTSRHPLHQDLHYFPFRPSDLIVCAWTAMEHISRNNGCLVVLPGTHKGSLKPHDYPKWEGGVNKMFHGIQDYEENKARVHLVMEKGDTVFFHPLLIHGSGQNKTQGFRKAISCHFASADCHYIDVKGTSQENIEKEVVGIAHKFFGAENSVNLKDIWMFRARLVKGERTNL
B2: C-C motif chemokine 4 (Homo sapiens), P13236 (parent)
chain: MKLCVTVLSLLMLVAAFCSPALSAPMGSDPPTACCFSYTARKLPRNFVVDYYETSSLCSQPAVVFQTKRSKQVCADPSESWVQEYVYDLELN
partner: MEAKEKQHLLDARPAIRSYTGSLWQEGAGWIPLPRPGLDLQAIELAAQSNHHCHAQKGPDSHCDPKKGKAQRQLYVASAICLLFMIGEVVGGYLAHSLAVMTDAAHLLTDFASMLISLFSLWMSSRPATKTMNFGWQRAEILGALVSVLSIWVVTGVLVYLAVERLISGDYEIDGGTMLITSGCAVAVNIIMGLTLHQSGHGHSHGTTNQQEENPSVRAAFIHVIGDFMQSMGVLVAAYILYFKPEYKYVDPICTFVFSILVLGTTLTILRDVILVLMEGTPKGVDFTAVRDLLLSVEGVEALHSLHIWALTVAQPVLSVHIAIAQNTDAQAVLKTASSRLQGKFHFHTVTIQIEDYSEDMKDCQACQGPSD
B3: Filamin-binding LIM protein 1 (Homo sapiens), Q8WUP2 (parent)
chain: MASKPEKRVASSVFITLAPPRRDVAVAEEVRQAVCEARRGRPWEAPAPMKTPEAGLAGRPSPWTTPGRAAATVPAAPMQLFNGGCPPPPPVLDGEDVLPDLDLLPPPPPPPPVLLPSEEEAPAPMGASLIADLEQLHLSPPPPPPQAPAEGPSVQPGPLRPMEEELPPPPAEPVEKGASTDICAFCHKTVSPRELAVEAMKRQYHAQCFTCRTCRRQLAGQSFYQKDGRPLCEPCYQDTLERCGKCGEVVRDHIIRALGQAFHPSCFTCVTCARCIGDESFALGSQNEVYCLDDFYRKFAPVCSICENPIIPRDGKDAFKIECMGRNFHENCYRCEDCRILLSVEPTDQGCYPLNNHLFCKPCHVKRSAAGCC
partner: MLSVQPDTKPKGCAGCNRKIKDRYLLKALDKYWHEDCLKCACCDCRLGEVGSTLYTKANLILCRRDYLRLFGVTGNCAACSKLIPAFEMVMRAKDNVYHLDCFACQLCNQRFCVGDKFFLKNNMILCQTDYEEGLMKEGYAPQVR
B4: Beta-taxilin (Homo sapiens), Q8N3L3 (parent)
chain: MEANHSEQLSAERQSTPPGDSSSLPSHNGLEKEDGQDSPTPVQPPEKEASVHPDISEELNRQLEDIINTYGSAASTAGKEGSARASEQPENAESPDNEDGDCEETTEEAGREPVASGEPPTVKEPVSNKEQKLEKKILKGLGKEANLLMQNLNKLQTPEEKFDFLFKKYAELLDEHRTEQKKLKLLQKKQVQIQKEKDQLQGEHSRAILARSKLESLCRELQRHNKTLKEEALQRAREEEEKRKEITSHFQSTLTDIQGQIEQQSERNMKLCQENTELAEKLKSIIDQYELREEHLDKIFKHRELQQKLVDAKLEQAQEMMKEAEERHKREKEYLLNQAAEWKLQAKVLKEQETVLQAQLTLYSGRFEEFQSTLTKSNEVFATFKQEMDKTTKKMKKLEKDTATWKARFENCNKALLDMIEEKALRAKEYECFVMKIGRLENLCRALQEERNELHKKIRDAEISEKDDQSQHNSDEEPESNVSVDQEIDAEEVNSVQTAVKNLATAFMIIHHPESTPHQSKETQPEIGSSQESADAALKEPEQPPLIPSRDSESPLPPLTPQAEAEGGSDAEPPSKASNSPAGLGAETQCEGLPVGAQADQASWKPEAEASGQAPQAPTEASLQKMEADVPAPACAAEEHVAAMVPACEPSRQPPRAAAEELPVGASAGPQPRNVADTNLEGVD
partner: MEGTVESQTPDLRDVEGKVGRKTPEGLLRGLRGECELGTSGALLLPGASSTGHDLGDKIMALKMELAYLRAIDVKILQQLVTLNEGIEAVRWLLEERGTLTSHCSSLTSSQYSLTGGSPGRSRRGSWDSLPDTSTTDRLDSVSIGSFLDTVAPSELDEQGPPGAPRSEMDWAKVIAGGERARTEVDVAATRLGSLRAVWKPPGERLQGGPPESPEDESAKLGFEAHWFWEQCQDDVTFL
B5: Emerin (Homo sapiens), P50402 (parent)
chain: MDNYADLSDTELTTLLRRYNIPHGPVVGSTRRLYEKKIFEYETQRRRLSPPSSSAASSYSFSDLNSTRGDADMYDLPKKEDALLYQSKGYNDDYYEESYFTTRTYGEPESAGPSRAVRQSVTSFPDADAFHHQVHDDDLLSSSEEECKDRERPMYGRDSAYQSITHYRPVSASRSSLDLSYYPTSSSTSFMSSSSSSSSWLTRRAIRPENRAPGAGLGQDRQVPLWGQLLLFLVFVIVLFFIYHFMQAEEGNPF
partner: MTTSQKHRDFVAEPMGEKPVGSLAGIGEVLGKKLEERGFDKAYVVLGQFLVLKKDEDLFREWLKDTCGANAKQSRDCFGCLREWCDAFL
B6: Protein SPMIP9 (Homo sapiens), Q96LM6 (parent)
chain: MAGVKYPGQDPVDLDIYQSSHMVDYQPYRKHKYSRVTPQEQAKLDAQLRDKEFYRPIPNPNPKLTDGYPAFKRPHMTAKDLGLPGFFPSQEHEATREDERKFTSTCHFTYPASHDLHLAQGDPNQVLQSADFPCLVDPKHQPAAEMAKGYLLLPGCPCLHCHIVKVPILNRWGPLMPFYQ
partner: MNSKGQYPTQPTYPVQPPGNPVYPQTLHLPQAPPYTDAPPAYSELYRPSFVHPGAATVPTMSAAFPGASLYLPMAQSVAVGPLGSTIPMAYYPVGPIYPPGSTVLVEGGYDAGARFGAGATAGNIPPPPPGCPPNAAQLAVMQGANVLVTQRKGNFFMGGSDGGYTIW

Variants of: B1
Details: with pahx_human PHYH

Variant | effect of a mutation on the interaction
R23H | with no effect

Variants of: B2
Details: with znt2_human SLC30A2, Q9BRI3

Variant | effect of a mutation on the interaction
MKLCVTVLSLLMLVATFCSPALSAPMGSDPPTACCFSYTARKLPRNFVVDYYETSSLCSQPAVVFQTKRSKQVCADPSESWVQEYVYDLELN [A16T] | disrupting interaction strength
MKLCVTVLSLLMLVAAFRSPALSAPMGSDPPTACCFSYTARKLPRNFVVDYYETSSLCSQPAVVFQTKRSKQVCADPSESWVQEYVYDLELN [C18R] | with no effect
MKLCVTVLSLLMLVAAFCSPVLSAPMGSDPPTACCFSYTARKLPRNFVVDYYETSSLCSQPAVVFQTKRSKQVCADPSESWVQEYVYDLELN [A21V] | disrupting interaction strength

Variants of: B3
Details: with lmo3_human LMO3, Q8TAP4

Variant | effect of a mutation on the interaction
MASKPEKRVASSVFITLAPPRRDVAVAEEVRQAVCEARRGRPWEAPAPMKTPEAGLAGRPSPWTTPGRAAATVPAAPMQLFNGGCPPPPPVLDGEDVLPDLDLLPPPPPPPPVLLPSEEEAPAPMGASLIADLEQLHLSPPPPPPQAPAEGPSVQPGPLRPMEEELPPPPAEPVEKGASTDICAFCHKTVSPRELAVEAMKRQYHAQCFTCRTCRRQLAGQSFYQKDGRPLCKPCYQDTLERCGKCGEVVRDHIIRALGQAFHPSCFTCVTCARCIGDESFALGSQNEVYCLDDFYRKFAPVCSICENPIIPRDGKDAFKIECMGRNFHENCYRCEDCRILLSVEPTDQGCYPLNNHLFCKPCHVKRSAAGCC [E233K] | with no effect
MASKPEKRVASSVFITLAPPRRDVAVAEEVRQAVCEARRGRPWEAPAPMKTPEAGLAGRPSPWTTPGRAAATVPAAPMQLFNGGCPPPPPVLDGEDVLPDLDLLPPPPPPPPVLLPSEEEAPAPMGASLIADLEQLHLSPPPPPPQAPAEGPSVQPGPLRPMEEELPPPPAEPIEKGASTDICAFCHKTVSPRELAVEAMKRQYHAQCFTCRTCRRQLAGQSFYQKDGRPLCEPCYQDTLERCGKCGEVVRDHIIRALGQAFHPSCFTCVTCARCIGDESFALGSQNEVYCLDDFYRKFAPVCSICENPIIPRDGKDAFKIECMGRNFHENCYRCEDCRILLSVEPTDQGCYPLNNHLFCKPCHVKRSAAGCC [V174I] | with no effect

Variants of: B3
Details: with lmo3_human LMO3, Q8TAP4
Remark: another data set of the same source

Variant | effect of a mutation on the interaction
MASKPEKRVASSVFITLAPPRRDVAVAEEVRQAVCEARRGRPWEAPAPMKTPEAGLAGRPSPWTTPGRAAATVPAAPMQLFNGGCPPPPPVLDGEDVLPDLDLLPPPPPPPPVLLPSEEEAPAPMGASLIADLEQLHLSPPPPPPQAPAEGPSVQPGPLRPMEEELPPPPAEPVEKGASTDICAFCHKTVSPRELAVEAMKRQCHAQCFTCRTCRRQLAGQSFYQKDGRPLCEPCYQDTLERCGKCGEVVRDHIIRALGQAFHPSCFTCVTCARCIGDESFALGSQNEVYCLDDFYRKFAPVCSICENPIIPRDGKDAFKIECMGRNFHENCYRCEDCRILLSVEPTDQGCYPLNNHLFCKPCHVKRSAAGCC [Y204C] | disrupting interaction strength

Variants of: B4
Details: with lura1_human LURAP1, Q96LR2

Variant | effect of a mutation on the interaction
T361A | with no effect
T523I | with no effect

Variants of: B5
Details: with baf_human BANF1, O75531

Variant | effect of a mutation on the interaction
MDNYADLSDTELTTLLRRYNIPHGPVVGSTRRLYEKKIFEYETQRRRLSPPSSFAASSYSFSDLNSTRGDADMYDLPKKEDALLYQSKGYNDDYYEESYFTTRTYGEPESAGPSRAVRQSVTSFPDADAFHHQVHDDDLLSSSEEECKDRERPMYGRDSAYQSITHYRPVSASRSSLDLSYYPTSSSTSFMSSSSSSSSWLTRRAIRPENRAPGAGLGQDRQVPLWGQLLLFLVFVIVLFFIYHFMQAEEGNPF [S54F] | with no effect

Variants of: B6
Details: with dazp2_human DAZAP2, Q15038

Variant | effect of a mutation on the interaction
Y68H | with no effect
P177S | with no effect
I16V | with no effect
